Source: paper PMC3135403 (The Journal of Cell Biology, 2011)

Key:
GST-BakΔTM [1] = biological target: T1, GST-BakΔTM (human, UniProt Q16611 1-186); assay: SPR
T1 sequence (looked up): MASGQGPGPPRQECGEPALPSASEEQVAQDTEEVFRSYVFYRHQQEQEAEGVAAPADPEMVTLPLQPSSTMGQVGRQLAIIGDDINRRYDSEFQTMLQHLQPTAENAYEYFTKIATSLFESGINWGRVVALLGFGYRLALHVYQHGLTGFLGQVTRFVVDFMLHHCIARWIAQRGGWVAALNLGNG

GST-BakΔTM R36A = biological target: T2, GST-BakΔTM R36A (human, UniProt Q16611 1-186, R36A); assay: SPR
T2 sequence (looked up): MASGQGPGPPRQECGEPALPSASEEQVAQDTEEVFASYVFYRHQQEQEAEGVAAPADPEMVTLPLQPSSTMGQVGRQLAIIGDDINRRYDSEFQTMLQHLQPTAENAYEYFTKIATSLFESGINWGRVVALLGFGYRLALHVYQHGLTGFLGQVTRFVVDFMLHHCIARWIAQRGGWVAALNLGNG

GST-Bak 93E = biological target: T3, GST-Bak 93E (human, UniProt Q16611 1-186, Bak 93E); assay: SPR
T3 sequence (looked up): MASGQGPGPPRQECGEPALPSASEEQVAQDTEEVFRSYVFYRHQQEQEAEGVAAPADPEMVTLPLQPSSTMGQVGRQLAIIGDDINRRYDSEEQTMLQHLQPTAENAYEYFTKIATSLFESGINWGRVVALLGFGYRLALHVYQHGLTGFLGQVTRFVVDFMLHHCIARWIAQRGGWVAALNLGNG

GST-Bak 114E = biological target: T4, GST-Bak 114E (human, UniProt Q16611 1-186, Bak 114E); assay: SPR
T4 sequence (looked up): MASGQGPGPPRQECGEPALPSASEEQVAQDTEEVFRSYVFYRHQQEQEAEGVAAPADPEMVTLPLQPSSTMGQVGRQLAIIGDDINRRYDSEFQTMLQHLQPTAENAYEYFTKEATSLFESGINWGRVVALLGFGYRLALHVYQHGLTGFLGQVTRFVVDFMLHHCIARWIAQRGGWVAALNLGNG

GST-Bak 93E/114E = biological target: T5, GST-Bak 93E/114E (human, UniProt Q16611 1-186, Bak 93E/114E (93E) | Bak 93E/114E (114E)); assay: SPR
T5 sequence (looked up): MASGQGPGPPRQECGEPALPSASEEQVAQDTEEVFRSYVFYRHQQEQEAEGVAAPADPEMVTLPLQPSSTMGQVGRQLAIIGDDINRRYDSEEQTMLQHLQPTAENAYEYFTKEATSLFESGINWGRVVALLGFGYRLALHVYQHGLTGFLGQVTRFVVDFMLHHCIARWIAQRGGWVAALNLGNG

GST-BakΔTM [2] = biological target: T1, GST-BakΔTM; assay: SPR; remark: listed apart in the source
SEC = biological target: the molecule itself; assay: SEC

B1: Noxa (full-length, S peptide and His6 tagged) (natural protein, human, UniProt Q13794-1 1-54, looked up)
chain: MPGKKARKNAQPSPARAPAELEVECATQLRRFGDKLNFRQKLLNLISKLFCSGT
Kd (GST-BakΔTM [1]): 24 nM | binding result (GST-BakΔTM R36A): binds | binding result (GST-Bak 93E): binds | binding result (GST-Bak 114E): binds | binding result (GST-Bak 93E/114E): binds

B2: tBid (domain or fragment, human, UniProt P55957 61-195, looked up)
chain: GNRSSHSRLGRIEADSESQEDIIRNIARHLAQVGDSMDRSIPPGLVNGLALQLRNTSRSEEDRNRDLATALEQLLQAYPRDMEKEKTMLVLALLLAKKVASHTPSLLRDVFHTTVNFINQNLRTYVRSLARNGMD
binding result (GST-BakΔTM [2]): binds

MPGKKARKNAQPSPARAPAELEVECATQLRRFGDKLNFRQ (domain or fragment, human, UniProt Q13794-1 1-40, looked up) [NoxaΔCT]
binding result (GST-BakΔTM [2]): binds

B3: His6-Bak R36A (domain or fragment, human, UniProt Q16611 1-186, looked up)
chain: MASGQGPGPPRQECGEPALPSASEEQVAQDTEEVFASYVFYRHQQEQEAEGVAAPADPEMVTLPLQPSSTMGQVGRQLAIIGDDINRRYDSEFQTMLQHLQPTAENAYEYFTKIATSLFESGINWGRVVALLGFGYRLALHVYQHGLTGFLGQVTRFVVDFMLHHCIARWIAQRGGWVAALNLGNG
binding result (SEC): binds
